The text below walks through data of article PMC6744478, “Development of R7BP inhibitors through cross-linking coupled mass spectrometry and integrated modeling” (Communications Biology, 2019).

Common to all, as to test: SPR; OpenSPR (Nicoya), Streptavidin sensor chip; tagged R7BP variant as ligand, purified R7-RGS/Gβ5 duplex as analyte at 3–5 concentrations; PBS pH 7.4, 0.005% Tween20; 25 µL per minute; 1:1-binding model; two independent experiments
Common to all, as to settings: both partners purified
Background: Surface plasmon resonance follows binding to a sensor surface in real time, without labels.

The target of one experiment is T1, RGS7/Gβ5 duplex (human, UniProt P49802 1-495; O14775-2 1-353).
T1 construct: RGS7 (regulator of G protein signaling 7), human; cDNA in pCMV3 vector from Sino Biological; holds the loop RGS7-LP21 at aa230–250; Gβ5 (GNB5), human, short form; also called RGS7 duplex; RGS7/HIS-Gβ5; source: Expi293 HEK cells, transfected, purified; not shown: 6x HIS (named on the purified RGS7/HIS-Gβ5 of the Western blot)
T1 sequence (looked up) 1: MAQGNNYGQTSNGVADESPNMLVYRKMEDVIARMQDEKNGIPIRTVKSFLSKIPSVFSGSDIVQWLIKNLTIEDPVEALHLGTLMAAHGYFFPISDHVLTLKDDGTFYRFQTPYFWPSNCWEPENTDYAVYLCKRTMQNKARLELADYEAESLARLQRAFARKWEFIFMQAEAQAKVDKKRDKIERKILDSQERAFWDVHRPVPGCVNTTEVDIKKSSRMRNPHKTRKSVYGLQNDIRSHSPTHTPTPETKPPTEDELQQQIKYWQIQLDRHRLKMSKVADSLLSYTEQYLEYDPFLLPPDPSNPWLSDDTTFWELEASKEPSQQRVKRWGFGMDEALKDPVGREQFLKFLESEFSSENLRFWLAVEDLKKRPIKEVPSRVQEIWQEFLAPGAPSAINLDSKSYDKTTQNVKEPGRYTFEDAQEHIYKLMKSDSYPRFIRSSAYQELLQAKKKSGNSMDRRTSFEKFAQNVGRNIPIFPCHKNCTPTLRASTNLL
T1 sequence (looked up) 2: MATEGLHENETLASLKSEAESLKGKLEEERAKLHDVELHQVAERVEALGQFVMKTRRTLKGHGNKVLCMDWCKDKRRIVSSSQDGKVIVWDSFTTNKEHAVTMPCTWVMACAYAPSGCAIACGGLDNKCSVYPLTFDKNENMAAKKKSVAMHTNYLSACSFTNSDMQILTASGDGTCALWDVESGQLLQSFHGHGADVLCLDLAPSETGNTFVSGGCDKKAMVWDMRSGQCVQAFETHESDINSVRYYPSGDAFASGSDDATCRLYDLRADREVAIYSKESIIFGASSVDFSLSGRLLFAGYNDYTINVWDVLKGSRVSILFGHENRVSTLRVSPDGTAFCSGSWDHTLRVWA

The target in the next experiment is T2, RGS6/Gβ5 duplex (human, UniProt P49758 1-472; O14775-2 1-353).
T2 construct: RGS6 (regulator of G protein signaling 6), human; Gβ5 (GNB5), human, short form; Only GNB5 constructs with an N-terminal 6x HIS or TS tag are described; also called RGS6 duplex; source: Expi293 HEK cells, transfected, purified
T2 sequence (looked up) 1: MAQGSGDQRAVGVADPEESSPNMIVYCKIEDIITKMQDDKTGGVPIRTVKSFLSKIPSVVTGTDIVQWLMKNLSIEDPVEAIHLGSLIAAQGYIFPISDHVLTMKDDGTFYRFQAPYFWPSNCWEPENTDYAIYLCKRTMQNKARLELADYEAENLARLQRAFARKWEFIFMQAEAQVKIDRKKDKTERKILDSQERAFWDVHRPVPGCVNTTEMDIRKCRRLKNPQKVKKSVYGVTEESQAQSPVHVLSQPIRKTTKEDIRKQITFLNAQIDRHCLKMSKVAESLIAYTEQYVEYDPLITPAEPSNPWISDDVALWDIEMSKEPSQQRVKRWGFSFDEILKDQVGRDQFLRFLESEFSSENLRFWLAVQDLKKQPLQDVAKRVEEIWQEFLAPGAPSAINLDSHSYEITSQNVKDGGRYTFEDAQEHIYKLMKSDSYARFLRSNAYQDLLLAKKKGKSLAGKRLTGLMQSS
T2 sequence (looked up) 2: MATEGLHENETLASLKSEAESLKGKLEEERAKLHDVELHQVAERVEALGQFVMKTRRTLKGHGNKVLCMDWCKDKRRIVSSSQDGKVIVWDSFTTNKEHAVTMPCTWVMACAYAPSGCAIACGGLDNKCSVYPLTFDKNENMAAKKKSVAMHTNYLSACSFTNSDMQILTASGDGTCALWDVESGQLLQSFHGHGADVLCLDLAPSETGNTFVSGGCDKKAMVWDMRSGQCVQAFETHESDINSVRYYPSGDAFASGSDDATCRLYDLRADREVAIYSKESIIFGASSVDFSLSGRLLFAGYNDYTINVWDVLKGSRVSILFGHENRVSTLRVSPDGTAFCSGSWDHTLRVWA

In a further experiment the target is T3, RGS11/Gβ5 duplex (human, UniProt O94810 1-467; O14775-2 1-353).
T3 construct: RGS11 (regulator of G protein signaling 11), human; Gβ5 (GNB5), human, short form; also called RGS11 duplex; source: Expi293 HEK cells, transfected, purified
T3 sequence (O94810 whole entry, one chain of several): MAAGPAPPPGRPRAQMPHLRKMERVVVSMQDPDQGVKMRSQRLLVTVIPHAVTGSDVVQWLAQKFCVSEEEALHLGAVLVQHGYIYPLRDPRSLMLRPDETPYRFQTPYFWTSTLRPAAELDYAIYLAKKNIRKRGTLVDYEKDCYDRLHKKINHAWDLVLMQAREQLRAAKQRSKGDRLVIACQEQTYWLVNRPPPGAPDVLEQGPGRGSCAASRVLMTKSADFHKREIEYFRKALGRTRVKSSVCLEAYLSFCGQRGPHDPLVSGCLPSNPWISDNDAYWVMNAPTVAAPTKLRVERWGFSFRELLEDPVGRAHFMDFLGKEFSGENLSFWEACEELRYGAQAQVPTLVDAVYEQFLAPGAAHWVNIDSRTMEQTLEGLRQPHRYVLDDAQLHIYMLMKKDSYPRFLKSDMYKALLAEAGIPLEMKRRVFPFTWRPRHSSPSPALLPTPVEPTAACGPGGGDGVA

Another experiment deals with T4, RGS9/Gβ5 duplex (human, UniProt O75916 1-674; O14775-2 1-353).
T4 construct: RGS9-2 (regulator of G protein signaling 9, splice form 2), human; cDNA in pCMV3 vector from Sino Biological; Gβ5 (GNB5), human, short form; also called RGS9 duplex; RGS9-2/Gβ5; source: Expi293 HEK cells, transfected, purified
T4 sequence (looked up) 1: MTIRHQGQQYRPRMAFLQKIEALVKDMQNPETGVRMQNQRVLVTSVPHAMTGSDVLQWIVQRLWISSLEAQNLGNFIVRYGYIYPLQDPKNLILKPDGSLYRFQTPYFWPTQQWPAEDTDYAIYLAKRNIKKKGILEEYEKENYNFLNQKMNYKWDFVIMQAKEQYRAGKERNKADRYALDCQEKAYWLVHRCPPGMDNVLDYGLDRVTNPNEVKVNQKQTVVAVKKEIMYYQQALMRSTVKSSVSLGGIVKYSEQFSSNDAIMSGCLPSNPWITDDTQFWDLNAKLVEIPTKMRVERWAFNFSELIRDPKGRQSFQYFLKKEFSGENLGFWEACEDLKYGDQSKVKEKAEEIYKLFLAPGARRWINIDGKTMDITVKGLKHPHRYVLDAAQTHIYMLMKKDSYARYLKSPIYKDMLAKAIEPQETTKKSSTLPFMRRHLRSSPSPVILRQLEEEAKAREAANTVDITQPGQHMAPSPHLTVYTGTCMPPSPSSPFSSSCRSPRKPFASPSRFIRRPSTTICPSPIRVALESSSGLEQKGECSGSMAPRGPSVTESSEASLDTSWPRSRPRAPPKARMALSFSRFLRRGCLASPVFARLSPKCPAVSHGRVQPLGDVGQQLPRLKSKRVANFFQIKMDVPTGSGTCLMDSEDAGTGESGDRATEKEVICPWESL
T4 sequence (looked up) 2: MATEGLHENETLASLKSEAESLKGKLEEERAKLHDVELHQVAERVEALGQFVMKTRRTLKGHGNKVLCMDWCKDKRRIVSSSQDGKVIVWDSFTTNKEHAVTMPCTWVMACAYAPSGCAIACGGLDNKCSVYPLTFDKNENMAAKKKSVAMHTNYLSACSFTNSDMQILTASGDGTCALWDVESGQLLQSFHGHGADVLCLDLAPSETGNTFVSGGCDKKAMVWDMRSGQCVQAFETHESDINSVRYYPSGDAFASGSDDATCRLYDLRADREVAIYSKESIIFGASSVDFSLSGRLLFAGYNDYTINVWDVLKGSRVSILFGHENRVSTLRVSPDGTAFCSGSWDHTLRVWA

B1: R7BPΔC (domain or fragment, human, UniProt Q6MZT1 1-222, looked up)
chain: MSSAPNGRKKRPSRSTRSSIFQISKPPLQSGDWERRGSGSESAHKTQRALDDCKMLVQEFNTQVALYRELVISIGDVSVSCPSLRAEMHKTRTKGCEMARQAHQKLAAISGPEDGEIHPEICRLYIQLQCCLEMYTTEMLKSICLLGSLQFHRKGKEPGGGTKSLDCKIEESAETPALEDSSSSPVDSQQHSWQVSTDIENTERDMREMKNLLSKLRETMPL
notes: R7BP (RGS7BP), human, C-terminus aa223–257 removed (the mutated cysteines 252 and 253 lie in the removed stretch); Its tag is surmised from its use as SPR ligand; also called R7BP with the C-terminus (aa223–257) removed; source: Expi293 HEK cells, transfected, purified
As for B1, the equilibrium dissociation constant (Kd) (usually a measure of binding affinity in units of concentration) with RGS7/Gβ5 duplex was found to be 9.9 nM.

B2: R7BP-FL (full-length R7BP; construct R7BP-TEV-TS) (natural protein, human, UniProt Q6MZT1 1-257, looked up)
chain: MSSAPNGRKKRPSRSTRSSIFQISKPPLQSGDWERRGSGSESAHKTQRALDDCKMLVQEFNTQVALYRELVISIGDVSVSCPSLRAEMHKTRTKGCEMARQAHQKLAAISGPEDGEIHPEICRLYIQLQCCLEMYTTEMLKSICLLGSLQFHRKGKEPGGGTKSLDCKIEESAETPALEDSSSSPVDSQQHSWQVSTDIENTERDMREMKNLLSKLRETMPLPLKNQDDSSLLNLTPYPLVRRRKRRFFGLSSLISS
notes: last residue 257 by the printed aa223–257; palmitoylation site removed; also called RGS7BP; source: Expi293 HEK cells, transfected, purified (StrepTrap HP; SEC if needed); not shown: Twin-Strep (after a TEV protease site), C-terminal, kept
As for B2, the Kd with RGS6/Gβ5 duplex is 2.3 nM; with RGS7/Gβ5 duplex, 19 nM; in the experiment with RGS11/Gβ5 duplex, 2.3 nM; with RGS9/Gβ5 duplex, 1.5 nM.

B3: R7BPΔN (domain or fragment, human, UniProt Q6MZT1 22-257, looked up)
chain: QISKPPLQSGDWERRGSGSESAHKTQRALDDCKMLVQEFNTQVALYRELVISIGDVSVSCPSLRAEMHKTRTKGCEMARQAHQKLAAISGPEDGEIHPEICRLYIQLQCCLEMYTTEMLKSICLLGSLQFHRKGKEPGGGTKSLDCKIEESAETPALEDSSSSPVDSQQHSWQVSTDIENTERDMREMKNLLSKLRETMPLPLKNQDDSSLLNLTPYPLVRRRKRRFFGLSSLISS
notes: R7BP (RGS7BP), human, lacking the N-terminal 21 amino acids (R7BP-N21); C252S, C253S are stated for all R7BP constructs; Its tag is surmised from its use as SPR ligand; also called truncated R7BP derivative lacking the N-terminal 21 amino acids; source: Expi293 HEK cells, transfected, purified
The molecule B3 came in with a dissociation constant (Kd) with RGS7/Gβ5 duplex of 1.8 nM.
